In patent US6384302:

Assays:
Assay in all cases: cell-based or functional assay
bovine trypsin (bovine) = bovine trypsin (bovine) (UniProt P00760)
[1] = molecular target: Helicoverpa zea (H. zea) midgut trypsin (Helicoverpa zea)
[2] = molecular target: trypsin (source not stated)

Substance | SA = Specific Activity in IU/mg protein (IU/mg protein) (bovine trypsin (bovine)) | SA = Specific Activity in IU/mg protein (IU/mg protein) [1] | IA = Inhibitory Activity in IUs (BAPNA hydrolysis) (bovine trypsin (bovine)) | IA = Inhibitory Activity in IUs (BAPNA hydrolysis) [1] | inhibition activity after heating at 70° C. for 5 minutes [2] | inhibition activity before heating [2]
Kunitz trypsin inhibitor (soybean) (from UniProt P01070 25-205) | 1.02 | 0.845 |  |  |  | 
Affinity purified P. macroloba trypsin inhibitor (PmTI) | 2.48 | 3.73 | 4.96 IU | 7.46 IU |  | 
P. macroloba large trypsin inhibitor (PmLTI) | 2.78 | 3.93 | 5.57 IU | 7.86 IU |  | 
Crude P. macroloba seed extract | 0.038 | 0.079 | 0.119 IU | 0.245 IU | 3.7 IU/mg TI | 2.2 IU/mg TI
Bowman-Birk trypsin inhibitor (soybean) (from UniProt P01055 40-110) | 5.03 | 2.1 |  |  |  | 
P. macroloba small trypsin inhibitor (PmSTI) | 50.9 | 14.2 | 30.6 IU | 8.54 IU |  | 
